{
  "source": "patent US20240101708A1",
  "about": "(Genentech, published 2024)",
  "binders": {"B1": {"name": "RNF43-35 (antibody, V domains shown)", "VH": "QVQLKESGPGLVQPSQTLSLTCTVSGFSLTTYSVHWVRQHSGKNLEWMGRMWTAGDTSYNSAFTSRLNIFRDTSKSQVFLKMNSLQTEDTGTYYCARSSYTSGYPFDSWGQGVMVTVSS", "VL": "DTVLTQSPALAVSPGERVTISCRASESVSKLMHWYQQRPGQQPQLLIYLTSHLASGVPARFSGSGSGTDFTLTIDPVEADDTATYYCQQSRNDPTFGAGTKLELK", "notes": "Rat clone; VH/VL only"}, "B2": {"name": "RNF43-90 (antibody, V domains shown)", "VH": "QVQLKESGPGLVQPSQTLSLTCTVSGFSLTSYSVHWVRQHSGNRLEWMGRMWSAGDTSFNSAFTSRLNITRDTSKSQVFLKMNSLQTEDTGTYYCVRSFYNAGYPFDYWGQGVMVTVSS", "VL": "B1 VL with E26D, S29I, H33N, R38K, Q42R, Q44K, T50A, A79T, A98P", "notes": "Rat clone; VH/VL only"}, "B3": {"name": "RNF43-126 (antibody, V domains shown)", "VH": "EVQLQESGPGLVKPSQSLSLTCSVTGFSITSSHRWNWIRKFPGNKLEWMGYINSAGSTNYNPSLKSRISITRDTSKNQFFLQVNSVTTEDTATYYCTRLGLQYRDFDYWGQGVMVTVSS", "VL": "DIQMTQSPASLSASLGETISIECRASDDIYSNLAWYQQKSGKSPQLLIYAANRLKDGVPSRFSGSGSGTQYSLKISGMQTEDEGDYFCLQASKFPLTFGSGTKLEIK", "notes": "Rat clone; VH/VL only"}, "B4": {"name": "RNF43-217 (antibody, V domains shown)", "VH": "B3 VH with I68V, T74A", "VL": "B3 VL with Q79E", "notes": "Rat clone; VH/VL only"}, "B5": {"name": "RNF43-69 (antibody, V domains shown)", "VH": "EVQLVESGGGLVQPGRSLKLSCAASGFTFSDYYMAWVRQAPKKGLEWVASITYEGSSTYYGDSVKGRFTISRDNAKSTLYLQMNSLRSEDTATFYCARHLDYGYDYAWYFDFWGPGTMVTVSS", "VL": "DIVLTQSPTTLSVTPGETVSLSCRTSHSIGTNLHWYQQKTNESPRLLIKYASQSISGIPSRFSASGSGTDFTLNINNVEFDDVSSYFCQQTQSWPLTFGSGTKLEIK", "notes": "Rat clone; VH/VL only"}, "B6": {"name": "RNF43-75 (antibody, V domains shown)", "VH": "B5 VH with Y32H, Y109S", "VL": "B5 VL with T9I, T10I, K49N, D81E, S84A, F87Y, S93R", "notes": "Rat clone; VH/VL only"}, "B7": {"name": "RNF43-152 (antibody, V domains shown)", "VH": "QVTLKESGPGILQPSQTLSLTCTFSGSSLSTYGMGVGWIRQPSGKGLEWLANIWWDDDKYYNPSLKNRLTISKDTSNNQSFLKIANVDTADTATYYCARIDGTYNYFDYWGQGVMVTVSS", "VL": "DVVLTQTPSRLSATIGQSVSISCRSSQSLLDSYGNTYLSWFLQRPGQSPQRLIFLVSNLGSGVPNRVSGSGSGTDFTLKISGVEAEDLGVYYCMQTTHDPLTFGSGTKLEIK", "notes": "Rat clone; VH/VL only"}, "B8": {"name": "RNF43-129 (antibody, V domains shown)", "VH": "EVQLVESGGGLVQPGRSMKLSCAASGFTFSNYDMAWVRQAPKKGLEWVASITYDVSSTYYRDSVKGRFTISRDNAKSTLYLQMDSLRSEDTATYYCTTLDRAGYYYDGYGFYWFANWGQGTLVTVSS", "VL": "DIQMTQSPSSMSVSLGDTVTITCRASQDVKIYVNWFQQKPGKSPRQMIYRATNLADGVSSRFSGSRSGSDYLFTISSLESEDVADYHCLQYDEYPPTFGSGTKVEIK", "notes": "Rat clone; VH/VL only"}, "B9": {"name": "RNF43-33 (antibody, V domains shown)", "VH": "QEQLKESGPGLVQPSQTLSLTCTVSGFSLTSYNVHWVRQPPRKGLEWMGRMRYNGDTSYNSALKSRLSISRDTSKNQVFLKMNSLQTDDTGTYYCARGPLWDYWGQGVMVTVSS", "VL": "DVVLTQTPPTLSATIGQSVSVSCRSSQSLLHSNGNTYLNWLLQRPGQPPQLLIYLVSRLESGVPNRFSGSGSGTDFTLKISGVEAEDLGVYYCVQSTHAPYTFGAGTKLELK", "notes": "Rat clone; VH/VL only"}, "B10": {"name": "RNF43-106 (antibody, V domains shown)", "VH": "QIQLGQSGPELTKPGESVKISCKASGYTFSDYPIHWVKQAPGKGLKWMGWINTYTGKPTFADDFKGRFVFSLEASASTANLQISNLKNEDTATYFCALGPISTVFYAMDAWGQGTSVTVSS", "VL": "DIQMTQSPSFLSASVGDRVTINCKASQNINKYLNWYQQKLGEAPKRLIYNTNNLQTGIPSRFSGSGSGTDYTLTISSLQPEDFATYFCLQHNSFPYTFGAGTKLELK", "notes": "Rat clone; VH/VL only"}, "B11": {"name": "RNF43-210 (antibody, V domains shown)", "VH": "QIQLVQSGPELKKPEESVKISCKASGYIFTDYLIHWVKQAPGEGLKWMGWINTYTGKPTYADDFKGRFVFSLEASASTAILQISNLKNEDTATYFCALGPITTVVYVMDAWGQGTSVTVSS", "VL": "B10 VL with G57D, T69A, S76N", "notes": "Rat clone; VH/VL only"}, "B12": {"name": "RNF43-123 (antibody, V domains shown)", "VH": "B10 VH with G5V, T12K, S30T, I34M, F60Y, S77N, E89D, M108V", "VL": "B10 VL with L40V, I48M, A100P, K103E", "notes": "Rat clone; VH/VL only"}, "B13": {"name": "RNF43-221 (antibody, V domains shown)", "VH": "EVQLVESGGGLVQPGRSLKLSCTASGFTLSDYAMAWVRQAPEKGLEWVATISYDGSRTYYGGSVKGRFTISRDNAENILYLQMDSLRSADTATYYCANSATPHYWGQGVMVTVSS", "VL": "DVVMTQTPASLSLAIGQPASISCKSSQSLLDTSRKTFLNWILQRPGQSPKRLIYQVSKLYSEVPDRFSGSGSETEFTLKISRVEAEDLGVYYCWQGTHFPDTFGAGTKLELK", "notes": "Rat clone; VH/VL only"}, "B14": {"name": "RNF43-170 (antibody, V domains shown)", "VH": "EVQLVESGGGLVPPGRSLKLSCVASGFTFNDYYMAWVRQAPTKGLEWVASISYEGRRTYYGDSVKGRFTISRDNAKSTLYLQMNSLRSDDTATYYCATHSNYIFDYWGQGVMVTVSS", "VL": "DIRMTQSPASLSASLGETVNIECLASEDIYSDFAWFQQKPGQSPLLLIYNGNSLQNGVPSRFSGSGSGTQYSLKINSLQSEDVATYFCQQYNNYPPTFGGGTKLELK", "notes": "Rat clone; VH/VL only"}, "B15": {"name": "RNF43-179 (antibody, V domains shown)", "VH": "B14 VH with P13Q, T42K, S52N, R56S, D89E, Y106N", "VL": "B14 VL with S53N", "notes": "Rat clone; VH/VL only"}, "B16": {"name": "RNF43-117 (antibody, V domains shown)", "VH": "QVSLKESGPGMLQPSQTLSLTCTFSEFSLSTYGLGVGWIRQPSGKGLEWLANIWWDDDKYYNPSLKNRLTISKDTSNNQAFLKITNVDTADTATYYCARIDGRWHYFDYWGQGDRVIVSS", "VL": "DIVLTQTPSILSATIGQSVSISCRSTQSLLDSDGNTYLYWFLQRPGQSPQRLIYLVSNLGSGVPNRFSGSGSGTDFTLKISGVEAEDLGFYYCMQGAHTPLTFGSGTKLEIK", "notes": "Rat clone; VH/VL only"}, "B17": {"name": "RNF43-201 (antibody, V domains shown)", "VH": "B7 VH with S7Y, S27F, S30R, A51T, S80A, A85T, A90E, T92S, Y104F", "VL": "B7 VL with Y33D, S39Y, F54Y, V90I, M94L, T96A, D99A", "notes": "Rat clone; VH/VL only"}, "B18": {"name": "RNF43-180 (antibody, V domains shown)", "VH": "EAQLVESGGGLVRPGRSLKLTCAASGFTFSHYDMAWVRQAPARGLEWVASIGPGGGLTHYRDSVKGRFTVSRDHAESSLYLQMDSLRSEDTATYYCARHYGWSYFDYWGQGVMVTVSS", "VL": "DIQMTQSPSFLSASLGDSITITCHASQNIKGWLAWYQQKSGNAPELLIYTASGLRSGVPSRFSGSGSGTDYILTISNLQPEDFATYYCQHYQSFPNTFGAGTKLELR", "notes": "Rat clone; VH/VL only"}, "B19": {"name": "RNF43-107 (antibody, V domains shown)", "VH": "EVQPVESGGGLVQPGRSLKLSCPASGFTFSNYDMAWVRQAPTKGLEWVASISPSGGRTYYRDSVKGRFTISRDNSKSTLYLQMDSLRSEDTATFYCATHRYYSYFDFWGQGVMVTVSS", "VL": "DIQMTQSPASLSASLGETISIDCRTSEDIYNNLAWYQQKSGRSPQLLISATNRLQDGVPSRFSGSGSGTQYSLKISGMQPEDEGVYFCLQGSKYPYTFGTGTKLELK", "notes": "Rat clone; VH/VL only"}},
  "note": "Where a chain is given by its changes, count along the chain named.",
  "data": [
    {"biological_target": "T1, recombinant human RNF43 extracellular domain (human, UniProt Q68DV7 24-197)", "T1 construct": "extracellular domain; also called huRNF43; human RNF43 ECD", "T1 sequence (looked up)": "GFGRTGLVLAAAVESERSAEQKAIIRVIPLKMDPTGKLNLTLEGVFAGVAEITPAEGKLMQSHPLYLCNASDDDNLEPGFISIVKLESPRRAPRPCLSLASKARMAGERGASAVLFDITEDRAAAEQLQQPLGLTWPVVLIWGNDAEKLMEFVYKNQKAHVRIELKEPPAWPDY", "assay": "SPR Biacore 8K; antibody captured on Protein A; RNF43 ECD analyte; 25 C", "method": "Antibodies were screened for binding to recombinant human RNF43 and ZNRF3 ECDs using a Biacore® 8 k instrument (GE Life Sciences). Briefly, antibodies diluted to 1 μg/ml in 1×HBSP buffer (Cytiva, BR100368) were captured on a Sensor Chip Protein A (GE Life Sciences) using a flow rate of 10 μl/minute and a contact time of 60 seconds. Binding of recombinant human RNF43 and ZNRF3 extracellular domain to the captured antibodies was analyzed at 25° C. using a single cycle kinetics method with a flow rate of 30 μl/minute, a contact time of 180 seconds and a dissociation time of 600 seconds. The concentration of recombinant human RNF43 and ZNRF3 extracellular domain in the single cycle kinetics were 0, 0.8, 4, 20, and 100 nM. Between cycles, the chip was regenerated using 10 mM Glycine HCl pH 1.5 injected for 30 seconds at 30 μl/minute. Data were evaluated using Biacore 8K Evaluation software (GE Life Sciences). Kinetic constants were obtained using a 1:1 binding model with the parameter RI set to zero. Cell surface ligase antibodies with sub-nanomolar affinities may provide advantages in certain instances, for example, in the degradation efficiency which is correlated with the durability of the ternary complex as shown in FIG. 5D.", "units": {"Kd": "nM"}, "values": [
      {"binder": "B1", "Kd": 0.07},
      {"binder": "B2", "Kd": 0.29},
      {"binder": "B3", "Kd": 1.75},
      {"binder": "B4", "Kd": 1.49},
      {"binder": "B5", "Kd": 16.8},
      {"binder": "B6", "Kd": 4.65},
      {"binder": "B7", "Kd": 17.8},
      {"binder": "B8", "Kd": 1.17},
      {"binder": "B9", "Kd": 63},
      {"binder": "B10", "Kd": 15.6},
      {"binder": "B11", "Kd": 13.4},
      {"binder": "B12", "Kd": 13.4},
      {"binder": "B13", "Kd": 51.6},
      {"binder": "B14", "Kd": 76},
      {"binder": "B15", "Kd": 31.7},
      {"binder": "B16", "Kd": 19.8},
      {"binder": "B17", "Kd": 9.9},
      {"binder": "B18", "Kd": 2.81},
      {"binder": "B19", "Kd": 0.341}
    ]}
  ]
}
